Experimental data: patent US20250346589A1, “RADIOISOTOPE LABELED SSTR2-AGONISTS WITH LINKERS” (Erasmus University Medical Center Rotterdam, priority 2022, published 2025)

Columns and labels:
[1] = in vitro; assay type: in vitro ADME; details: for remaining at 1 h / remaining at 4 h / remaining at 24 h: mouse, serum, Stability in mouse serum (%)
Protocol: The ^203Pb-labelled compounds (˜2 MBq) or the ^212Pb-labelled compounds (˜70 kBq) were incubated in 300 μL of phosphate buffered saline (PBS; 0.1 M, pH 7.4) or mouse serum at 37° C. Stability of the radiolabed peptides was monitored at 1, 4 and 24 h post incubation. The samples in PBS were directly analyzed by radio-HPLC without any pretreatment. However, samples in mouse serum were mixed with an equal volume of acetonitrile to precipitate the proteins. The solution was centrifuged twice for 5 min at 13,000 rpm, and the supernatant was analyzed by radio-HPLC using Method 1 for lead-203 and Method 2 for lead-212.

[2] = system: H69-tumor xenograft and organs; design: species or system mice; details: mouse, in vivo, iv
Protocol: Six-week-old male Balb/c nu/nu-specific and opportunistic pathogen-tree (SOPF) mice (Janvier Labs, Le Genest-Saint-Isle, France) were housed in individually ventilated cages, with 4 mice per cage. Upon arrival, mice were acclimated for 1 week, with access to food and water ad libitum. Mice were subcutaneously inoculated on the right shoulder with NCI-H69 cells (5×10^6 cells suspended in 100 μL of ⅓ Matrigel (Corning Inc., Corning, NY, USA) and ⅔ Hank's balanced salt solution (Gibco). NCI-H69 xenografts were allowed to grow for 3 weeks. Tumor sizes were 391±173 mm^3 at the start of the studies. All animal experiments were approved by the Animal Welfare Committee of the Erasmus MC and were conducted in agreement with institutional guidelines (license number: AVD101002017867).
Biodistribution studies were performed to determine tumor and organ uptake of [^212Pb]Pb-DOTAMTATE, [^212Pb]Pb-DOTAM-Amcha-TATE or [^212Pb]Pb-DOTAM-Pip-TATE. Animals (n=4 for each time point and each compound) were injected intravenously with an average of 100 kBq/0.5 nmol at t=0. At 3 selected time points (1, 4 and 24 h) p.i. blood was collected via cardiac puncture under isoflurane/O2 anesthesia, after which the mice were sacrificed. The tumor and organs of interest (prostate, pancreas, spleen, liver, GI tract (stomach, small intestine, large intestine), kidneys, lungs, heart, muscle, bone and tail) were excised, washed in PBS and blotted dry. To confirm receptor specificity of the 3 radiotracers uptake, NCI-H69-xenografted mice were co-injected with [212Pb] Pb-DOTAMTATE, [^212Pb]Pb-DOTAM-Amcha-TATE or [^212Pb]Pb-DOTAM-Pip-TATE plus an excess (25 nmol) of the respective unlabelled peptide (n=3), after which tumor and organ uptake was determined at 24 h p.i. The blood, tumor, and relevant organs were weighed and measured in a γ-counter. To determine the total injected radioactivity per animal, calibration curve with lead-212 was determined. The percentage of injected dose per gram (% ID/g) was determined for each tissue sample and corrected for both the injected volume and % ID present at the injection site (the tail). […] Pb-DOTAMTATE. In Table 3, the absorbed dose per administered activity (Gy/MBq; with RBE=5) in H69-tumor xenograft and organs for [^212Pb]Pb-DOTAM-TATE, [^212Pb]Pb-DOTAM-Amcha-TATE and [^212Pb]Pb-DOTAM-Pip-TATE is given.

| Structure (SMILES) | Stability in mouse serum (%) ([1]; 1 h) | Stability in mouse serum (%) ([1]; 4 h) | Stability in mouse serum (%) ([1]; 24 h) | remaining at 1 h [1] [%] | remaining at 4 h [1] [%] | remaining at 24 h [1] [%] | further results |
| --- | --- | --- | --- | --- | --- | --- | --- |
| C[C@@H](O)[C@H](NC(=O)[C@@H]1CSSC[C@H](NC(=O)[C@@H](Cc2ccccc2)NC(=O)[C@H]2CC[C@H](CNC(=O)CN3CCN(CC(N)=O)CCN(CC(N)=O)CCN(CC(N)=O)CC3)CC2)C(=O)N[C@@H](Cc2ccc(O)cc2)C(=O)N[C@H](Cc2c[nH]c3ccccc23)C(=O)N[C@@H](CCCCN)C(=O)N[C@@H]([C@@H](C)O)C(=O)N1)C(=O)O [[^203Pb]Pb-DOTAM-Amcha-TATE] [metal not drawn] | 100 | 100 | 100 |  |  |  |  |
| C[C@@H](O)[C@H](NC(=O)[C@@H]1CSSC[C@H](NC(=O)[C@@H](Cc2ccccc2)NC(=O)CN2CCC(NC(=O)CN3CCN(CC(N)=O)CCN(CC(N)=O)CCN(CC(N)=O)CC3)CC2)C(=O)N[C@@H](Cc2ccc(O)cc2)C(=O)N[C@H](Cc2c[nH]c3ccccc23)C(=O)N[C@@H](CCCCN)C(=O)N[C@@H]([C@@H](C)O)C(=O)N1)C(=O)O [[^203Pb]Pb-DOTAM-Pip-TATE] [metal not drawn] | 97 | 97 | 97 |  |  |  |  |
| C[C@@H](O)[C@H](NC(=O)[C@@H]1CSSC[C@H](NC(=O)[C@@H](Cc2ccccc2)NC(=O)CN2CCN(CC(N)=O)CCN(CC(N)=O)CCN(CC(N)=O)CC2)C(=O)N[C@@H](Cc2ccc(O)cc2)C(=O)N[C@H](Cc2c[nH]c3ccccc23)C(=O)N[C@@H](CCCCN)C(=O)N[C@@H]([C@@H](C)O)C(=O)N1)C(=O)O [[^203Pb]Pb-DOTAM-TATE] [metal not drawn, reference compound] | 99 | 99 | 99 |  |  |  |  |
| C[C@@H](O)[C@H](NC(=O)[C@@H]1CSSC[C@H](NC(=O)[C@@H](Cc2ccccc2)NC(=O)[C@H]2CC[C@H](CNC(=O)CN3CCN(CC(N)=O)CCN(CC(N)=O)CCN(CC(N)=O)CC3)CC2)C(=O)N[C@@H](Cc2ccc(O)cc2)C(=O)N[C@H](Cc2c[nH]c3ccccc23)C(=O)N[C@@H](CCCCN)C(=O)N[C@@H]([C@@H](C)O)C(=O)N1)C(=O)O [[^212Pb]Pb-DOTAM-Amcha-TATE, metal not drawn] |  |  |  | 96 | 96 | 93 |  |
| C[C@@H](O)[C@H](NC(=O)[C@@H]1CSSC[C@H](NC(=O)[C@@H](Cc2ccccc2)NC(=O)[C@H]2CC[C@H](CNC(=O)CN3CCN(CC(N)=O)CCN(CC(N)=O)CCN(CC(N)=O)CC3)CC2)C(=O)N[C@@H](Cc2ccc(O)cc2)C(=O)N[C@H](Cc2c[nH]c3ccccc23)C(=O)N[C@@H](CCCCN)C(=O)N[C@@H]([C@@H](C)O)C(=O)N1)C(=O)O [[^212Pb]Pb-DOTAM-Amcha-TATE] [metal not drawn] |  |  |  |  |  |  | Absorbed dose per administered activity, Kidneys [2]: 121.73 ± 14.57 Gy/MBq; Absorbed dose per administered activity, Large Intestines [2]: 2.03 ± 0.26 Gy/MBq; Absorbed dose per administered activity, Liver [2]: 9.03 ± 2.24 Gy/MBq; Absorbed dose per administered activity, Lung [2]: 3.20 ± 0.40 Gy/MBq; Absorbed dose per administered activity, Pancreas [2]: 5.40 ± 0.14 Gy/MBq; Absorbed dose per administered activity, Spleen [2]: 0.73 ± 0.19 Gy/MBq; Absorbed dose per administered activity, Stomach wall [2]: 5.78 ± 0.77 Gy/MBq; Absorbed dose per administered activity, Tumor [2]: 35.49 ± 9.89 Gy/MBq |
| C[C@@H](O)[C@H](NC(=O)[C@@H]1CSSC[C@H](NC(=O)[C@@H](Cc2ccccc2)NC(=O)CN2CCC(NC(=O)CN3CCN(CC(N)=O)CCN(CC(N)=O)CCN(CC(N)=O)CC3)CC2)C(=O)N[C@@H](Cc2ccc(O)cc2)C(=O)N[C@H](Cc2c[nH]c3ccccc23)C(=O)N[C@@H](CCCCN)C(=O)N[C@@H]([C@@H](C)O)C(=O)N1)C(=O)O [[^212Pb]Pb-DOTAM-Pip-TATE, metal not drawn] |  |  |  | 99 | 99 | 96 |  |
| C[C@@H](O)[C@H](NC(=O)[C@@H]1CSSC[C@H](NC(=O)[C@@H](Cc2ccccc2)NC(=O)CN2CCN(CC(N)=O)CCN(CC(N)=O)CCN(CC(N)=O)CC2)C(=O)N[C@@H](Cc2ccc(O)cc2)C(=O)N[C@H](Cc2c[nH]c3ccccc23)C(=O)N[C@@H](CCCCN)C(=O)N[C@@H]([C@@H](C)O)C(=O)N1)C(=O)O [[^212Pb]Pb-DOTAM-TATE, metal not drawn, reference compound] |  |  |  | 99 | 99 | 97 |  |
| C[C@@H](O)[C@H](NC(=O)[C@@H]1CSSC[C@H](NC(=O)[C@@H](Cc2ccccc2)NC(=O)CN2CCN(CC(N)=O)CCN(CC(N)=O)CCN(CC(N)=O)CC2)C(=O)N[C@@H](Cc2ccc(O)cc2)C(=O)N[C@H](Cc2c[nH]c3ccccc23)C(=O)N[C@@H](CCCCN)C(=O)N[C@@H]([C@@H](C)O)C(=O)N1)C(=O)O [[^212Pb]Pb-DOTAM-TATE] [metal not drawn, reference compound] |  |  |  |  |  |  | Absorbed dose per administered activity, Kidneys [2]: 140.03 ± 17.95 Gy/MBq; Absorbed dose per administered activity, Large Intestines [2]: 1.64 ± 0.30 Gy/MBq; Absorbed dose per administered activity, Liver [2]: 6.93 ± 0.64 Gy/MBq; Absorbed dose per administered activity, Lung [2]: 2.06 ± 0.29 Gy/MBq; Absorbed dose per administered activity, Pancreas [2]: 3.65 ± 0.28 Gy/MBq; Absorbed dose per administered activity, Spleen [2]: 0.56 ± 0.14 Gy/MBq; Absorbed dose per administered activity, Stomach wall [2]: 4.42 ± 1.30 Gy/MBq; Absorbed dose per administered activity, Tumor [2]: 26.61 ± 19.27 Gy/MBq |
